We go through 4 substances from paper PMC4433741.

What all share (experiment): SPR
A general note: SPR reads the build-up and loss of mass on a sensor chip optically.

The target of assay [1] is human neonatal Fc receptor (FcRn), His-tagged (human) (UniProt P55899).
The target of assay [2] is human FcγRIIIa, His-tagged (human) (UniProt P08637).
Assay [3] deals with neonatal Fc receptor (FcRn), soluble, His-tagged (UniProt P55899). The settings on record: pH 6.0; Running buffer not stated; Table 1 labels the measurement pH 6.0.

pKd: −log10 of the molar value.

UniProt P08637, sequence (P08637 17-208): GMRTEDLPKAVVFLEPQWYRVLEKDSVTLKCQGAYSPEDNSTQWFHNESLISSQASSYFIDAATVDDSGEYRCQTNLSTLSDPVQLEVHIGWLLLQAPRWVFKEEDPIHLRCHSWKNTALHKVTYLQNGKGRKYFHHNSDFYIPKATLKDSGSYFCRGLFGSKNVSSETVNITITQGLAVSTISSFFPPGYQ

Usually koff stands for the rate constant with which the complex falls apart. Higher therefore signals a short-lived complex. By kon is commonly meant a measure of how fast the partners come together. A higher kon goes with faster complex formation. One may read the pKd as −log10 of the Kd, conventionally taken in molar units. For the substance VRC01-LS (antibody), in assay [1], the dissociation rate constant (koff) was 0.0558 s⁻¹ and the kon was found to be 223000 M⁻¹ s⁻¹. In assay [2], the pKd was 6.00 and the dissociation rate constant (koff) was found to be 0.1 s⁻¹.
“VRC01-IHH (non-FcRn-binding mutant) (antibody)”: in assay [2], the negative-log Kd (pKd) was 5.35 and the koff was 0.187 s⁻¹.
In assay [2], VRC01 (the wild type) (antibody) gave a pKd of 5.89 and a koff of 0.105 s⁻¹.
In assay [3], VRC01 (wild-type Fc) IgG1 yielded a Kon of 94000 M⁻¹ s⁻¹ and a koff of 0.279 s⁻¹.
